Drawing on PMC6476477, “A DNA aptamer reveals an allosteric site for inhibition in metallo-β-lactamases”, this text covers Ki, IC50 and Kd for one molecule.

Settings in all cases: protein: recombinant; tags: none stated; hairpin (M-fold predicted)
The target of data set [1] is T1, 5/B/6 metallo-beta-lactamase (MBL) wild type (Bacillus cereus 5/B/6, UniProt P14488 30-256).
T1 sequence: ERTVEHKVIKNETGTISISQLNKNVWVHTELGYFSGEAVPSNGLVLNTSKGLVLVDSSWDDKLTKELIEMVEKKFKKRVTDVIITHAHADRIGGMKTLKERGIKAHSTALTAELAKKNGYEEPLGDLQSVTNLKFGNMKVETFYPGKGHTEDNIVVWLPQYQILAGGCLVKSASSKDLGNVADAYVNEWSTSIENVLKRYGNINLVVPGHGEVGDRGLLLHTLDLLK
Put plainly: enzyme inhibition kinetics (uncompetitive KI'); cefuroxime substrate; NMR: 20 mM MOPS, 1 mM ZnSO4, pH 7, 25 C (buffer stated for assignment sample; titration at 25 C); kinetic assay buffer not in the material.

Data set [2] addresses T1, 5/B/6 metallo-beta-lactamase (MBL) wild …. Put plainly: enzyme inhibition; cefuroxime substrate; NMR: 20 mM MOPS, 1 mM ZnSO4, pH 7, 25 C (buffer stated for assignment sample; titration at 25 C); kinetic assay buffer not in the material.
Data set [3] shares this target. Put plainly: NMR 1H-15N HSQC titration; 750 uM enzyme, 0-4 eq 10-mer; range of fits for Lys78, Lys104, Lys107; 1 mM Zn2+ (NMR buffer); NMR: 20 mM MOPS, 1 mM ZnSO4, pH 7, 25 C (buffer stated for assignment sample; titration at 25 C); kinetic assay buffer not in the material.

As usually defined, the Ki is a dissociation constant, usually derived from enzyme kinetics or from competition with a known ligand. By IC50 is commonly meant the concentration that inhibits the measured activity by half. Broadly, the Kd is the constant that tells how readily two partners part at equilibrium. In the case of CCAAACTTGG (structured_DNA) [10-mer DNA aptamer], the Ki in data set [1] is 63 ± 3 nM. Also, the concentration for half-maximal inhibition (IC50) in data set [2] is 120 ± 5 nM. Moreover, the Kd in data set [3] was 153 nM.
